# Test: yeast display, Sf9 membrane polyspecificity reagent, FACS + sequencing; frameworks hold sequencing errors
# Procedure, shortened: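 Polyreactivity labels are assigned by the sorting gate from which each nanobody was recovered. The gates were low and high (top ~1%), set on anti-HA fluorescence for expression and streptavidin fluorescence for reagent binding. Before sorting, galactose-induced (36–48 hours) yeast display cells were stained for 1 hour at 4 °C with 10% biotinylated, detergent-solubilized Sf9 membrane reagent.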
row,Sequence,polyreactivity (PSR sort gate)
1,QVQLVESGGGLVQAGGSLRLSCAASGRTFRGYAMGWSRQAHGKEREFVATISSRGGSTYYADSVKGSFTISRDNAKHTVYLQMNSLKPEDTAVYYCAAKRRAKTGYRYDYWGQGTQVTLSS,high polyreactivity
2,QVQLVESGGGLVQAGGSLRLSCAASGRTFRGYAMGWYRQAPGKERELVATISSRGGSTYYADSVKGRFTISRDNAKNTVYLQMNSLKPEDTAVYYCAARYIGYSSYKYDYWGQGTQVTVSS,high polyreactivity
3,QVQLVESGGGLVQAGGSLRLSCAASGRTFRGYVMGWYRQAPGKERELVAAISKSGGSTYYADSVKGRFTISRDNAKNTVYLQMNSLKPEDTAVYYCSKNYRYSVFYDGFDYWGQGTQVTVSS,low polyreactivity
4,QVQLVESGGGLVQAGGSLRLSCAASGRTFRINTMGWYRQAPGKERELVATITGSGGSTYYADSVKGRFTISRDNAKNTVYLQMNSLKPEDTAVYYCAVRWYDQVSRRGIGYYWGQGTQVTVSS,low polyreactivity
5,QVQLVESGGGLVQAGGSLRLSCAASGRTFRIYAMGWYRQAPGKERELVAAINSGGTTNYADSVKGRFTISRDNAKNTVYLQMISLKPEDTAVYYCAVRYSKTLSHFSYDYWGQGTQLTVSS,low polyreactivity
6,QVQLVESGGGLVQAGGSLRLSCAASGRTFRIYAMGWYRQAPGKERELVAAITKRGGITYYADSVKGRFTISRDNAKNTVYFQMNSLKPEDTAVYYCNKLPEPYDYDYWGQGTQVTVSS,high polyreactivity
7,QVQLVESGGGLVQAGGSLRLSCAASGRTFRIYAVGWYRQAPGKERELVATIDSGGSTNYADSVKGRFTISRDNAKNTVYLQMNSLKPVDTAVYYCNAEDKPWYYLAGQAEYDSWGQGTQVTVSS,low polyreactivity
8,QVQLVESGGGLVQAGGSLRLSCAASGRTFRIYSMGWYRQAPGKEREFVAGITRSDGSTYYADSVKGRFTISRDNAKNTVYLQMNSLKPEDTAVYYCNVEPYSHYRRTEDYWGQGTQVTVSS,high polyreactivity
9,QVQLVESGGGLVQAGGSLRLSCAASGRTFRKYAMGWYRQAPGKERELVAAISWSGGSTYYANSVKGRFTISRDNAKNTVYLPMNSLKPVDTAVYYCAAVPVHTGSLYWGFTTGYDYWGQGTQVTVSS,low polyreactivity
10,QVQLVESGGGLVQAGGSLRLSCAASGRTFRKYAMGWYRQAPGTERELVAAISWSGGSTYYANSVKGRFTISRDNAKNTVYLQMNSLKPEDTAVYYGAAVPVHNGSLYWGFTTGYDYWGQGTQVTVSS,low polyreactivity
11,QVQLVESGGGLVQAGGSLRLSCAASGRTFRLNAMGWYRQAPGKERELVAAITRGGRTNYADSVKGRFTISRDNAKNTVYLQMNSLKPEDTAVYYCAARYVERHTDYYYWGQGTQVTVSS,low polyreactivity
12,QVQLVESGGGLVQAGGSLRLSCAASGRTFRLYAMGWYRQAPGKERELVAAITENGGSTYYADSVKGRFTISRDNAKNTVYLQMTSLKPEDTAVYYCAAKRYSRYNYWGQCTQVTVSS,high polyreactivity
13,QVQLVESGGGLVQAGGSLRLSCAASGRTFRLYAMGWYRQAPGKERELVAAITRGGRTNYADSVKGRFTISRDNAKNTVYLQMNSLKPEDTAVYYCAARYVEGHPDYYYWGQGTQVTVSS,low polyreactivity
14,QVQLVESGGGLVQAGGSLRLSCAASGRTFRLYAMGWYRQAPGKERELVAAITRGGRTNYADSVKGRFTISRDNAKNTVYLQMNSLNPEDTAVYYCAARYVERHTDYYYWGQGTQVTVSS,low polyreactivity
15,QVQLVESGGGLVQAGGSLRLSCAASGRTFRLYAMGWYRQAPGKERELVASISRSVGSTYYADSVKGRFTISRDNAKNTVYLQMNSLKPEDTAVYYCAARSYIPGGWDGAYYYWGQGTQVTVSS,high polyreactivity
16,QVQLVESGGGLVQAGGSLRLSCAASGRTFRLYAMGWYRQATGTETELVAAISSRGGSTYYADSVKGRFTISRDNAKNTVYLQMNSLKPEDTAVYYCAKGLGSGQEIYGYDYWGQGTQVTVSS,high polyreactivity
17,QVQLVESGGGLVQAGGSLRLSCAASGRTFRNAMGWYRQAPGKEREFVATITWSGGSTYYADSVKGRFTISRDNAKNTVYLQMNSLKPEDTAVYYCAAEGRLWDWQRYDYWGQGTQVTVSS,low polyreactivity
18,QVQLVESGGGLVQAGGSLRLSCAASGRTFRNAMGWYRQEPVKEREFVATITWSGGSTYYADSVKGRFTISRDNAKNTVYLQMNSLKPEDTAVYYCAAEGRLWDWQRYDYWGQGTQVTVSS,low polyreactivity
19,QVQLVESGGGLVQAGGSLRLSCAASGRTFRPNAMGWYRQAPGKERELVASITRRGGTTYYADSVKGRFTISRDNAKNTVYLQMYSLKPEDSAVYYCNAPPGYSSTRNGYWGQGTQVTVSS,high polyreactivity
20,QVQLVESGGGLVQAGGSLRLSCAASGRTFRPYAMGWYRQAPGKEREFVARITWSGGTTYYADSVKGRFTISRDNAKNTVYLQMNSLKPEDTAVYYCAARVSRQTPLISYNYWGQGTQVTVSS,low polyreactivity
21,QVQLVESGGGLVQAGGSLRLSCAASGRTFRPYAMGWYRQAPGKERELVAAIDSSGTSTYYADSVKGRFTISRDNAKNTVYLQMNSLKPEDTAVYYCNTSLKRRRLRFNYWGQGTQVTVSS,low polyreactivity
22,QVQLVESGGGLVQAGGSLRLSCAASGRTFRPYAMGWYRQAPGKERELVAVITSGDSTSYADSVKGRFTISRDNAKNTVYLQMNSLKPEDTAVYYCAADSYSGYNYWGQGTQVTVSS,low polyreactivity

row,Sequence,polyreactivity (PSR sort gate)
1,QVQLVESGGGLVQAGGSLRLSCAASGRTFRQYAMGWYRQAPGKERELVAAISSSGGRTYYADSVKGRFTISRDNAKNTVYLQMNSLKPEDTAVYYCNAARYSYCFDSWGQGTQVTVSS,high polyreactivity
2,QVQLVESGGGLVQAGGSLRLSCAASGRTFRQYAMGWYRQAPGKERELVATISGGGGNTYYADSVKGRFTISRDNAKNTVYLQMNSLKPEDTAVYYCAARRRDRPVRGYDYWGQGTQVTVSS,high polyreactivity
3,QVQLVESGGGLVQAGGSLRLSCAASGRTFRRNAMAWYRKAPGKERELVAAISGGGSTNYADSVKGRFTISRDNAKNTVYLQMNSLKPEDTAVYYCNKRGTIWSGFWGQGTQVTVSS,high polyreactivity
4,QVQLVESGGGLVQAGGSLRLSCAASGRTFRRNAMGSYRQAPGKERELVATITGGGTNYADSVKGRFTISRDNAKNTVYLQMNSLKPEDTAVYYCAVGTRFYVPRRFDYWGQGTQVTVSS,high polyreactivity
5,QVQLVESGGGLVQAGGSLRLSCAASGRTFRRNAMGWYRQAPGKERELVAAIRWSSGSTYYADSVKRRFTISRDNAKNTVYLQMNSLKPEDTAVYYCAKRQWGGRESFDYWAQGTQVTVSS,low polyreactivity
6,QVQLVESGGGLVQAGGSLRLSCAASGRTFRRNAMGWYRQAPGKERELVAAITRSGGSTYYADSVKGRFTISRDNAKNTVYLQMNSLKPEDTAVYYCAAGTYVGLKTQYDYWGQGTQVTVSS,high polyreactivity
7,QVQLVESGGGLVQAGGSLRLSCAASGRTFRRNAMGWYRQAPGKERELVADISNGDSTKYADSVKGRFTISRDNAKNTVYLHMNRLKPVDTAVYYCNAQRYRVVVYNSHGWQTRNYWGQGTQVTVSS,low polyreactivity
8,QVQLVESGGGLVQAGGSLRLSCAASGRTFRRYAMGWSRQAPGKERELVATISSGGSTNYADSVKGRFTISRDNAKNTVYLQMNSLKPEDTAVYYCKARGRSTVTYGYWGQGTQVTVSS,high polyreactivity
9,QVQLVESGGGLVQAGGSLRLSCAASGRTFRRYAMGWYRQAPGKERELVAAISFGGRTYYADSVKGRFTISRDNAKNTVYLQMNSLKPEDTAVYYCAVRSYDQLIVPRDYWGQGTQVTVSS,high polyreactivity
10,QVQLVESGGGLVQAGGSLRLSCAASGRTFRRYAMGWYRQAPGKERELVAAISRNGGSTYYADSVKGRFTISRDNAKNTVYLQMNSLKPEDTAVYYCNAVTYGSYYYWGQGTQVTVSS,high polyreactivity
11,QVQLVESGGGLVQAGGSLRLSCAASGRTFRRYAMGWYRQAPGKERELVAGISRSGVSSYYADSVKGRFTISRDNAKNTVYLQMNSLKPEDTAVYYCATRYVPTLRSSGDYWGQGTQVTVSS,high polyreactivity
12,QVQLVESGGGLVQAGGSLRLSCAASGRTFRRYAMGWYRQAPGKERELVATITNAGSTYYADSVKGRFTISRDNAKNTVYLQMNSLKPEDTAVYYCAARVPYISDYWGQGTQVTVSS,low polyreactivity
13,QVQLVESGGGLVQAGGSLRLSCAASGRTFRRYAMGWYRQAPGKERELVATITNAGSTYYADSVKGRFTISSDNAKNTVYLQMNSLKPEDTSVYYCAARVPYKSDYWGQGTQVTVSS,low polyreactivity
14,QVQLVESGGGLVQAGGSLRLSCAASGRTFRRYAMGWYRQAPGKERELVATITSNGGSTYYADSVKGRFTISRDNAKNTVYLQMNSLKPEDTAVYYCARDLTYYRSRYDYWGQGTQVTVSS,high polyreactivity
15,QVQLVESGGGLVQAGGSLRLSCAASGRTFRRYTMGWYTQAPGKVRELVAAITTSGGSTYYADSVKGRFTISRDNAKHTVYLQMNSLKPEDTAVYYCAATRRYSGDFWGQGTQVTVSS,high polyreactivity
16,QVQLVESGGGLVQAGGSLRLSCAASGRTFRRYVMGGYRQAPGKERELVATITSGGRTNYADSVKGRFTISRDNAKNTVYLQMNSLKPEDTAVYYCNAVRIGLRYYYWGQGTQVTVSS,low polyreactivity
17,QVQLVESGGGLVQAGGSLRLSCAASGRTFRRYVMGWYRQAPGKERELVAAIRWTGGSTYYADSVKGRFTISRDIAKNTVYLQMNSLKPEDTAVYYWAASSYICYGYWGQGTQVTVSS,high polyreactivity
18,QVQLVESGGGLVQAGGSLRLSCAASGRTFRSNAMGWYRQAPGKERELVAAISKGGDRTYYADSVKGRFTISRDNAKNNVYLHMNSLKPEDTAVYYCAARYTPSRYYYWGQGTQVTVSS,high polyreactivity
19,QVQLVESGGGLVQAGGSLRLSCAASGRTFRSYAMGWYRQAPGKDRELVAAISYGGGRTFYADSVKGRFTISRDNEKNTVYLQMNSLKPEDTAVYYCNAAFPRSYRFDYWGQGTQLTVSS,high polyreactivity
20,QVQLVESGGGLVQAGGSLRLSCAASGRTFRSYAMGWYRQAPGKEREFVAAISRSGASTRYADSVKGRFTISRDNAKNTVYLQMNSLKPEDTAVYYCAAVWPDVRGYDYWGQGTQVTVSS,high polyreactivity
21,QVQLVESGGGLVQAGGSLRLSCAASGRTFRSYAMGWYRQAPGKERELVAAITSGGSTYYADSVKGRFTISRDNAKNTVYLQMNSLKPEDTAVYYCARGDHVGSAGYDYWGQGTQVTVSS,low polyreactivity
